According to article PMC13581290, “A systematic interactome of Saccharomyces cerevisiae SET1C expands its functional landscape and identifies candidate regulatory connections” (eLife, 2026):

Molecular target: T1, reconstituted SET1C (FLAG-Set1 and the seven other untagged subunits) (S. cerevisiae, UniProt P38827 1-1080; P39706 1-426; P36104 1-329; P38123 1-315; P43132 1-505; Q03323 …)
T1 construct: Set1, S. cerevisiae, full length (Set1 FL); Swd1, S. cerevisiae, untagged subunit; Swd2, S. cerevisiae, untagged subunit; Swd3, S. cerevisiae, untagged subunit; Bre2, S. cerevisiae, untagged subunit; Sdc1, S. cerevisiae, untagged subunit; Spp1, S. cerevisiae, untagged subunit; Shg1, S. cerevisiae, untagged subunit; The seven subunits are named in the introduction; also called full-length SET1C; …
Experiment: pull-down; GST-tagged Snf2 fragments (250 nM) on glutathione-Sepharose 4B with SET1C or C762SET1C (25 nM), BSA 0.2 mg/ml; 20 mM Tris-Cl pH 7.9, 150 mM NaCl, 0.2 mM EDTA, 20% glycerol, 0.1% NP-40; 4°C, 3 hr; immunoblotting
Conditions: both partners purified

- binding result: binds
B1: GST-Snf2C-AT-hook (domain or fragment, S. cerevisiae, UniProt P22082 1384-1547, looked up)
chain: ARKQRTKKEDKSEAIDGNGEIKGENIDADNDGPRINNISAEDRADTDLAMNDDDFLSKKRKAGRPRGRPKKVKLEGSENSEPPALESSPVTGDNSPSEDFMDIPKPRTAGKTSVKSARTSTRGRGRGRGRGRGRGRGRGRPPKARNGLDYVRTPAAATSPIDIR
notes: Snf2, S. cerevisiae, AT-hook region 1384-1547; also called Snf2-AT-hook; GST-Snf2-AT-hook; source: E. coli BL21, purified
